B1: THAP1; numbered along this chain (parent)
chain: MVQSCSAYGCKNRYDKDKPVSFHKFPLTRPSLCKEWEAAVRRKNFKPTKYSSICSEHFTPDCFKRECNNKLLKENAVPTIFLCTEPHDKKEDLLEPQEQLPPPPLPPPVSQVDAAIGLLMPPLQTPVNLSVFCDHNYTVEDTMHQRKRIHQLEQQVEKLRKKLKTAQQRCRRQERQLEKLKEVVHFQKEKDDVSERGYVILPNDYFEIVEVPA

Variants of: B1
Assay: THAP1 transcriptional activity (GFP+/GFP- enrichment relative to wild-type constructs) (ratio to WT); higher = more THAP1 activity (PSMB5 reporter activation)
Conditions: with PSMB5 promoter-GFP reporter
Description: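 Deep mutational scan of human THAP1. Site-saturation single amino acid variant library (residues 2-213) was expressed by lentivirus at MOI ~0.3 in THAP1-knockout HEK-293T cells carrying an endogenous PSMB5 promoter-GFP knock-in reporter. Five days post-transduction, BFP+ cells were FACS-sorted into GFP dim and GFP bright populations and variants were counted by Illumina sequencing. Activity is the GFP-bright/GFP-dim read fold change, mean of 2 replicates, divided by the mean fold change of wild-type (synonymous) constructs in the same screen pool; WT = 1.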

Variant	THAP1 transcriptional activity
L93Q	1.67
L93M	0.701
L93W	1.12
L93V	1.15
L82T	2.19
L82S	0.94
E66L	0.436
E66V	0.638
C33W	0.11
C33Y	0.162
C33Q	0.193
N75P	0.241
N75Q	0.684
N75W	0.844
N75C	0.38
N75F	0.875
E182I	0.428
E56M	0.509
E56A	0.98
E56T	0.336
A114D	1.33
H135T	0.111
D204R	0.547
D204C	0.753

Variant	THAP1 transcriptional activity
L71M	0.941
A7F	0.19
A7H	0.179
L177W	0.263
L177T	0.255
P101F	0.64
P30L	0.261
P30V	0.418
P30G	0.282
P102L	1.12
P102C	1.36
P102N	1.12
K179T	0.568
A39I	0.271
A39N	0.865
E178M	0.795
E178L	1.02
L129V	0.92
L119I	1.11
L119H	0.929
L119M	0.525
L119S	0.92
L119R	0.731
E174P	0.189

Variant	THAP1 transcriptional activity
E174K	0.794
I80T	0.298
I80Q	0.628
I80D	0.29
I80G	0.55
F63N	0.14
F63T	0.128
F63A	0.117
M143Y	0.547
L72H	0.134
L72P	0.221
L72A	0.17
K164W	0.146
K164A	0.337
Q145K	0.783
Q145I	0.448
Q145W	0.755
S110I	0.783
S110H	0.672
S110K	1.31
S110R	0.973
C10P	0.114
S130Q	0.656
C54N	0.106

Variant	THAP1 transcriptional activity
C54F	0.105
V211R	0.811
V211P	0.462
K147P	0.502
V184K	0.901
V184F	0.913
K158M	0.607
K158I	0.55
R42F	0.116
Q97W	0.632
T28Q	0.651
T28G	0.843
K16A	0.284
K16N	0.0777
V131K	0.299
V131E	0.239
F45D	0.0693
V183S	1.48
P103V	1.04
P103Q	1.15
F25G	0.182
F25V	0.0907
R171H	0.344
F81G	0.402

Variant	THAP1 transcriptional activity
A213Q	1.25
S51V	0.102
Y205L	2.1
Y205I	1.07
Y198I	1.25
N69T	0.226
N69K	0.133
N69A	0.111
H150A	1
H150V	1.1
H150M	1.09
H57Y	0.115
R175T	0.382
A38C	0.377
A38R	1.14
L118D	0.991
L118G	0.954
P106N	1.89
P122M	0.226
W36H	0.187
W36F	0.221
W36T	0.143
D134F	0.144
D134E	0.389

Variant	THAP1 transcriptional activity
D134I	0.153
K190I	1.48
K190R	0.923
F58I	0.0956
F58L	0.121
F58C	0.0689
F58K	0.0827
D113R	0.285
D113E	0.669
E189R	0.881
V156H	0.201
V156E	0.213
V156G	0.25
V109I	0.777
V109M	1.17
V109G	1.96
V109T	1.18
R41G	1.52
P19V	0.213
P19F	0.276
E91K	2.46
I116M	0.731
I116H	0.735
D88I	0.371

Variant	THAP1 transcriptional activity
N136F	0.279
K73N	0.522
K73G	0.194
K89R	0.657
K89A	0.888
P202Q	0.911
M120W	0.324
M120V	1.24
M120C	0.909
T142G	0.864
T142W	0.266
T142N	0.392
K11A	0.284
K11P	0.178
K70N	0.476
C67S	0.964
C67I	0.198
K161A	0.3
K161M	0.518
K161H	0.451
V139P	0.163
D141S	0.634
D141Y	0.644

Source: the supplement of paper PMC11811203
